Results published in the supplement of paper PMC9732359.
± gives the uncertainty stated by the source.

Assay: protein stability index of a GFP-peptide fusion (yeast GPS) (PSI 1-4); higher = more stable; sorted into four equal gates, so the index is relative within each strain
How it was run: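 Yeast carrying a pooled library were grown to mid-log phase in leucine-free medium. Each library plasmid expresses Cherry and has a tiled 17-residue yeast protein peptide fused downstream of GFP. Cells were sorted into four equal gates by GFP/Cherry ratio, and plasmids from each gate were PCR-amplified, Illumina-sequenced and assigned to strains by barcode. Summing, across gates, the read frequency times the gate number gave each peptide's protein stability index.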

Sequence	protein stability index (doa10∆)	protein stability index (pdr5∆)	protein stability index (san1∆)	protein stability index (ubr1∆)
IKELEHLHDAVFVNTGL [SWP82]	2.94 ± 0.067	2.9 ± 0.058	3.06 ± 0.059	2.91 ± 0.05
STFTKHLIKCFFKITLQ [ITC1]	1.43 ± 0.039	1.28 ± 0.03	1.51 ± 0.058	1.6 ± 0.03
RLNTVTRVHQLMLEDAV [MCD1]	3.32 ± 0.21	1.62 ± 0.06	1.69 ± 0.21	2.32 ± 0.095
AQWERSKLSQEFLYPHL [SNF12]	3.1 ± 0.088	3 ± 0.084	2.83 ± 0.071	3.08 ± 0.062
FAWSKPSTGSNLQQQQQ [YGR119C/NUP57]	3.02 ± 0.061	3.06 ± 0.063	3.02 ± 0.05	2.95 ± 0.045
VSTAAAATVRSTIRRLR [RPL43A]	2.54 ± 0.076	2.8 ± 0.07	2.13 ± 0.1	2.95 ± 0.057
STLYKYLKESKRKYDEI [SWI3]	3.51 ± 0.12	3.42 ± 0.24	3.21 ± 0.17	2.84 ± 0.15
LEDEKMKFQESLKKVDE [SMC4]	–	2.08 ± 0.26	–	–
NEIKQLGSDSSDGHNSE [SRB4]	2.6 ± 0.072	2.8 ± 0.084	2.31 ± 0.078	3 ± 0.09
DASTPLRSTENGIVDQV [RPB2]	2.94 ± 0.12	3.33 ± 0.1	3.34 ± 0.06	3.47 ± 0.092
TRKAMLDPLEVHMLDFP [PRP8]	2.84 ± 0.061	2.94 ± 0.06	3.03 ± 0.054	3 ± 0.048
SRRFKNGFQTGSASKAS [RPL37A]	2.76 ± 0.075	2.73 ± 0.087	3.26 ± 0.17	2.58 ± 0.055
EGDGAKAAISFGAKPEE [YJL041W/NSP1]	3.21 ± 0.1	3 ± 0.087	3.43 ± 0.082	3.43 ± 0.053
TYIKSEITQQEKGLNEL [SMC4]	1.88 ± 0.066	1.7 ± 0.059	2.75 ± 0.092	1.55 ± 0.051
GKQVFSLLIKPNHNSPV [RPO31]	–	3.33 ± 0.28	–	–
PEYYSTARVMGGLKNGV [DIS3]	3.15 ± 0.093	3.24 ± 0.1	3.23 ± 0.052	3.01 ± 0.082
GSLKLPNCPRPNMSICI [RPL1A]	2.62 ± 0.082	2.67 ± 0.05	2.95 ± 0.065	2.98 ± 0.05
AMSETLSKVSLLTPDIG [PRE8]	3.08 ± 0.11	3.19 ± 0.12	3.04 ± 0.13	3.35 ± 0.23
ERLHELKKLQSDIESAN [SMC1]	2.99 ± 0.076	3.23 ± 0.12	3.19 ± 0.061	3.2 ± 0.067
AIQKKDNKDKEGNAGGD [YOR098C/NUP1]	3.44 ± 0.17	3.32 ± 0.18	3.25 ± 0.1	3.44 ± 0.11
FKKDFEVNISSLDAREA [RPC40]	2.07 ± 0.059	1.58 ± 0.067	1.98 ± 0.1	2.16 ± 0.092
AGDIQLQYGWKVERHIM [RPO21]	1.18 ± 0.067	1.24 ± 0.12	1.36 ± 0.19	1.24 ± 0.098
LYTLVINDAGKAKKLIQ [RPL38]	2.06 ± 0.11	2.19 ± 0.098	1.99 ± 0.1	1.56 ± 0.13
KKKGLDENTSGKISKPR [PRP28]	3.5 ± 0.091	3.23 ± 0.14	3.52 ± 0.065	3.45 ± 0.099
TLVNKSTGLKNASDALK [RPS1B]	2.87 ± 0.11	3.2 ± 0.11	3.4 ± 0.092	3.24 ± 0.075
AASTPTTTATPHANPIT [PGD1]	2.91 ± 0.044	2.85 ± 0.035	2.92 ± 0.038	2.916 ± 0.026
LFSKNRNEVLESMDFLV [YCS4]	2.08 ± 0.05	2.19 ± 0.066	2.43 ± 0.076	2.62 ± 0.052

Sequence	protein stability index (doa10∆)	protein stability index (pdr5∆)	protein stability index (san1∆)	protein stability index (ubr1∆)
NTQLHGPSATDPETTAT [RGR1]	3.01 ± 0.094	2.89 ± 0.088	2.65 ± 0.073	2.81 ± 0.068
QQRIVSAYEASMVYSNV [RRP4]	2.32 ± 0.062	2.62 ± 0.05	2.62 ± 0.045	2.33 ± 0.046
MLWNLAAKKAMYTLSAQ [ASC1]	2.79 ± 0.069	2.45 ± 0.062	2.06 ± 0.073	2.18 ± 0.077
YREAPVIYRGPEPSHID [RET1]	2.83 ± 0.22	3.07 ± 0.23	3.21 ± 0.16	3.36 ± 0.16
KVDNDLRIELQSVYNDE [SRB8]	3.16 ± 0.22	3.29 ± 0.24	3.26 ± 0.12	–
CESCSTILCTPTGGKAK [RPS27A]	1.93 ± 0.046	2.32 ± 0.046	2.1 ± 0.055	2.18 ± 0.037
LLNDECTESTRENALYD [SNF2]	3.39 ± 0.2	3.07 ± 0.15	3.31 ± 0.071	3.69 ± 0.15
SFTQGELNDLKWGRNQP [YMR129W/POM152]	3.04 ± 0.15	2.84 ± 0.09	3.14 ± 0.091	2.78 ± 0.074
IELTSYESIATYASVTG [RPN7]	1.1 ± 0.077	1.31 ± 0.068	1.11 ± 0.22	1.15 ± 0.12
LEGTRVSLEERTKNLVS [SMC4]	3.45 ± 0.09	3.42 ± 0.075	3.34 ± 0.048	3.35 ± 0.08
VEELPTFHDYDMVKLDI [RRP42]	2.51 ± 0.055	2.75 ± 0.063	2.87 ± 0.045	3.13 ± 0.033
RKCCNHPYLFEGAEPGP [ISW2]	3.06 ± 0.064	3.11 ± 0.067	3.11 ± 0.05	3.2 ± 0.052
NATVNLAMEAILNELEV [YJR042W/NUP85]	2.7 ± 0.11	3 ± 0.11	2.58 ± 0.12	2.55 ± 0.11
VLEYLAAEILELAGNAA [HTA1]	2.85 ± 0.1	2.44 ± 0.1	2.54 ± 0.081	2.84 ± 0.1
SKVVDDMPSLRLIDLSG [GRR1]	2.8 ± 0.076	2.91 ± 0.081	2.72 ± 0.056	2.71 ± 0.078
TMYMEVYTAIYNYCVNK [CDC53]	1.63 ± 0.047	1.55 ± 0.047	1.51 ± 0.061	1.7 ± 0.031
LYDRPLKPDLNKITNQG [NAS6]	3.22 ± 0.096	3.42 ± 0.1	3.11 ± 0.07	3.4 ± 0.073
QHTTESDNISRKYEISF [RPB2]	3.16 ± 0.11	3.17 ± 0.088	2.92 ± 0.098	3.2 ± 0.11
SMINSVSPTNVMGTPLT [PGD1]	2.8 ± 0.053	2.94 ± 0.059	2.73 ± 0.042	2.84 ± 0.047
SLSVVAGKWSSKYLIKQ [ECM29]	–	2.19 ± 0.18	2.15 ± 0.17	2.39 ± 0.095
MPQSGTGVSVEAVDDVF [RPN11]	3.35 ± 0.11	3.12 ± 0.11	3 ± 0.092	3.19 ± 0.051
IGDKFASRHGQKGTIGI [RPB2]	1.34 ± 0.07	1.96 ± 0.047	1.57 ± 0.16	1.1 ± 0.041
IWVGEWKEVLAHNPELE [RPO31]	3 ± 0.087	2.36 ± 0.078	2.74 ± 0.072	2.74 ± 0.053
IQFGAKNMFEKKASKVT [ISW2]	2.66 ± 0.07	2.91 ± 0.072	2.68 ± 0.074	2.69 ± 0.11
SAIDEEIEELIDSINGP [SMC3]	3.29 ± 0.14	3.24 ± 0.17	3.08 ± 0.17	2.42 ± 0.24
PSAGPHKLRESLPLIVF [RPS4A]	1.76 ± 0.048	1.75 ± 0.045	1.69 ± 0.087	2.05 ± 0.046
NVKNYSTTQEILEFITA [RPC34]	1.28 ± 0.24	1.45 ± 0.088	1.18 ± 0.18	1.25 ± 0.15
